The values below come from patent US12385902B2, “Methods for generating and screening compartmentalised peptide libraries” (UNIVERSITY OF SOUTHAMPTON, priority 2017, dated 2025).

“Also recorded” adds a separate entry of the source.

For one assay, the target named is T1, AB42-GFP fusion (Homo sapiens, UniProt P05067).
T1 construct: In vitro expression in microfluidic droplets of AB42-GFP fusion with cyclo-TAFDR; made in house; host or cells: cell-free in vitro transcription/translation (IVTT)
In words: In vitro expression in microfluidic droplets of AB42-GFP fusion with cyclic peptide; aggregation assay read by FACS green fluorescence. The class given is biochemical. As to conditions: double emulsion droplets, IVTT 2 h at 37° C., relative to buffer alone, IVTT alone and cyclo-CA5. The method, then: FIG. 17. In vitro expression in microfluidic droplets of AB42-GFP fusion with cyclo-TAFDR (SEQ ID NO: 7) (Matis et al.). Vector CSpDuetNpuHisAB42-GFP was utilised for the cloning of TAFDR (SEQ ID NO: 7) into MCS1. Thereafter, plasmid DNA was encapsulated into agarose droplets alongside isothermal DNA amplification reaction components and incubated overnight. Agarose beads were prepped as previously stated and re-encapsulated together with IVTT. A final emulsification step was performed to yield FACS compatible double emulsions. A negative control vector in the presence of CA5 was likewise constructed to verify cyclo-TAFDR (SEQ ID NO: 7) AB42-GFP aggregation inhibition.
When GFP is produced as an aggregating fusion, its fluorescence is lost; however, when the aggregation is disrupted by TAFDR (SEQ ID NO: 7), the GFP can fluoresce. See Mathis et al., Nature Biomedical Engineering volume 1, pages 838-852 (2017).
We have used the Δβ42 aggregation assay to assess the performance of the system of the invention. This assay has previously been combined with a SICLOPPS screen (Mathis et al.), so cyclo-TAFDR (SEQ ID NO: 7) is a validated positive cyclic peptide control.
Vector CSpDuetNpuHisAB42-GFP was utilised for the cloning of TAFDR (SEQ ID NO: 7) into MCS1. […]
(In general: In flow cytometry, cells or beads pass a laser one at a time.)

For assay [1], the system named is Alzheimer's protein Δβ42 fused to GFP. The settings on record: Mathis et al., Nature Biomedical Engineering 2017; cited from earlier work.
Chain of Alzheimer's protein Δβ42 fused to GFP (P05067 672-713 limits assumed, stated change not applied): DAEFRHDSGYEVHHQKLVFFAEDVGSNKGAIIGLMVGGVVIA

T1 sequence (P05067 672-713 limits assumed): as the sequence (P05067 672-713 limits assumed, stated change not applied) above

Take cyclo-TAFDR (cyclised): the “green fluorescence (GFP) upon cyclic peptide expression, associated with disruption of Aβ aggregation” value in the assay with AB42-GFP fusion is “positive shift in green fluorescence; also recorded: significant increase in fluorescence”. Also, the “inhibition of aggregation of Aβ42 fused to GFP” value in assay [1] is recorded as “inhibit aggregation”.
